Results taken from patent publication US11318209B2, “Targeting macula densa cells as a new therapeutic approach for kidney disease” (MACULA DENSA CELL LLC, priority 2016, dated 2022).
“Also recorded” adds a separate entry of the source.

Columns and labels:
[1] = tested on: Ki67+ proliferating cells in the JGA area; assay: Ki67 immunofluorescence of low salt diet+captopril-treated mouse kidneys; format: in vivo
Excerpt: FIG. 7. Ki67 (red nuclei) immunofluorescence of control (FIG. 7A-FIG. 7B) and low salt diet+captopril-treated mouse kidneys (FIG. 7C-FIG. 7D). In contrast to control untreated (FIG. 7A) and control+7-NI (FIG. 7B), a high density of Ki67+ proliferating cells are visible around the JGA interstitium in response to low salt diet+captopril treatment (FIG. 7C). […] Nuclei were labeled blue with DAPI. n=4 each group, §: P<0.05 versus ctrl, *: P<0.05 versus untreated low salt+captopril.
(§1) The increased density of NG2+ cells was 70% inhibited by the administration of the selective COX-2 inhibitor SC58236 (FIG. 6E).

[2] = tested on: NG2+ cells in the JGA area; assay: NG2 immunofluorescence of low salt diet+captopril-treated mouse kidneys; format: in vivo
Excerpt: FIG. 6. NG2 (FIG. 6A, green) and renin (FIG. 6B, red) immunofluorescence of low salt diet+captopril-treated mouse kidneys. […] Nuclei were labeled blue with DAPI. n=4 each group, *: P<0.05.
as §1

[3] = tested on: NG2-derived progenitor cells; assay: Kidney tissue remodeling after 10 days of loop diuretic; format: in vivo; details: 10 days of treatment in an animal model
Excerpt: FIG. 22. […] Increase in renal cortical mesenchyme-derived cell density (red), remodeling of the entire length of the glomerular (G) arterioles by NG2-derived progenitor cells within 10 days in response to loop diuretics.
The Inventors' initial experimental strategy to show proof-of-principle for this macula densa mechanism was to apply gold-standard whole body approaches to activate this new mechanism (e.g. dietary salt restriction and loop diuretics), which have been known for decades to improve kidney function. One example is the use of the loop diuretic furosemide, which blocks salt-sensing by MD cells and therefore is equivalent to the effects of low dietary salt intake as shown in FIGS. 6-7, 10). […] Furosemide and other loop diuretics have been in human clinical use for decades as efficient anti-hypertensive therapies. In addition to diuretics, the Inventors will explore other small molecules that may have specific MD cell targeting characteristics, and may activate the MD kidney repair program.

MMDD1 cells = assay: GFP transfection with MMDD1 homing peptide+GFP cDNA complex; format: cell-based; details: overnight incubation, fluorescence microscopy
Excerpt: FIG. 19. Selective targeting of MD cells with the MMDD1 homing peptide. […] Note the diffuse cytosolic GFP expression in MMDD1 cells indicating successful escape of the endosomes after fusion protein internalization.
In preliminary data, the Inventors identified a MMDD1 homing peptide based on phage-display, used it as targeting domain, and fused to a histidine-rich amphipathic peptide, optimized for DNA binding properties and gene delivery through endosomal escape. The fusiogenic peptide was synthesized:
The peptide was mixed with pcDNA3.1 GFP and incubated for 1 hour at room temperature. The solution was added to cultured MMDD1 cells (MD cell line), HEK293 cells and M-1 cells (collecting duct cell line), and incubated overnight at 37° C. in a humidified atmosphere (95% air and 5% CO2). Transfection was measured by fluorescence microscopy.

cultured GEnCs [4] = assay: GEnC cell proliferation and cell migration (scratch opening assay); format: cell-based
cultured GEnCs [5] = assay: Endothelial tube formation assay (in vitro angiogenesis); format: cell-based; details: standard doses of CCN1 and VEGF
Procedure: FIG. 11. Robust effect of CCN1 on GEnCs: in vitro angiogenesis. Endothelial tube formation assays were performed using cultured GEnCs and standard doses of CCN1 and VEGF. *: P<0.05. Results are shown in FIG. 11A, FIG. 11B, FIG. 11C, FIG. 11D and FIG. 11E.
(§2) CCN1 had no effect on renin cell proliferation and migration (not shown).
In order to reproduce all of these MD-specific protective factors for therapeutic use, the Inventors utilized the existing MMDD1 in vitro cell culture model of MD cells that endogenously produce these factors. Mimicking the in vivo physiological activation of MD cells (low salt diet), the NaCl content of MD tissue culture medium was reduced by half as described earlier. […] The therapeutic strategy with this medium (illustrated in FIG. 21) is the same as above for CCN1, to inject it under the renal capsule for specific kidney targeting.

renin cell = assay: Renin cell proliferation and migration; format: cell-based; details: not shown
Excerpt: as §2

[6] = BalbC Adriamycin mouse model of FSGS; format: in vivo
Excerpt: FIG. 24. The robust protective effects of treatment with recombinant CCN1 or conditioned MD cell media in the BalbC Adriamycin mouse model of FSGS in vivo. FIG. 24A: Albuminuria (albumin/creatinine ratio, ACR) in the various control and treatment groups before ADR-induced kidney injury (baseline), two weeks later before the start of treatments, and 1 and 4 weeks after treatment with saline, recombinant CCN1, control or low salt-conditioned MD cell media. FIG. 24B-FIG. 24C: Trichrome staining of kidney histological sections.
In other work The Inventors tested the effects and therapeutic potential of the aforementioned novel biologicals. The robust protective effects of treatment with recombinant CCN1 or conditioned MD cell media in the BalbC Adriamycin mouse model of human-like focal segmental glomerulosclerosis (FSGS) in vivo is shown in FIG. 24. […] The development of albuminuria, the most important and clinically relevant functional readout of the failing kidneys was measured in the various control and experimental treatment groups before ADR-induced kidney injury (baseline), two weeks later before the start of treatments, and 1 and 4 weeks after treatment with saline, recombinant CCN1, control or low salt-conditioned MD cell media.

sclerotic glomeruli = assay: ADR mouse model of GS, renal subcapsular treatment; format: in vivo
Excerpt: FIG. 17. The effects of CCN1 and MMDD1 conditioned media treatment in the ADR mouse model of GS. FIG. 17A: illustration of study design. FIG. 17B: Effects of CCN1 and MMDD1 media on the number of Ki67+ cells (IF, red) per field. FIG. 17C: Effects of CCN1 and MMDD1 media on the number of p57+ podocytes (IF, red) per glomerulus. Green is autofluorescence for visualization of tissue anatomy.
In other preliminary experiments, mouse (ADR nephropathy resembling human-like FSGS) and rat (PAN-induced FSGS) models of CKD were established. Single renal subcapsular treatment with exogenous recombinant CCN1 was performed at a time point (two weeks after second ADR dose in mice, or after the second dose of PAN in rats) when severe and persistent glomerular pathology was confirmed (FIG. 17A), with subsequent two weeks' follow-up. Animals were placed in metabolic cages weekly for urine collection, and tissues (kidney, aorta, heart, brain, blood) harvested 4 weeks (after first ADR dose in mice), or 2 months (after first PAN dose in rats).
Since the main problem in kidney disease appears to be reduced or absent production of CCN1 by macula densa cells, the Inventors can supplement recombinant CCN1 peptide delivered specifically into the renal parenchyma. In preliminary studies illustrated in FIG. 17, the Inventors used subcapsular injections of recombinant CCN1. However, this is invasive procedure, which would have limited clinical use. A much better non-invasive approach the Inventors are currently testing is to give systemic iv injection of recombinant CCN1 targeted specifically to the kidney blood supply. This is performed by conjugating recombinant CCN1 to a glomerulus homing peptide. The promise and therapeutic benefit of this approach is shown in FIG. 17 in a pre-clinical animal model of CKD.
In order to reproduce all of these MD-specific protective factors for therapeutic use, the Inventors utilized the existing MMDD1 in vitro cell culture model of MD cells that endogenously produce these factors. […]

[7] = tested on: glomerular endothelial cells; assay: Serial MPM imaging of glomerular endothelial cells in Cdh5-Confetti mice; format: in vivo, mouse
Procedure: FIG. 15. Tracking the fate of the same glomerular endothelial cells over time in vivo at the single cell level. FIG. 15A-FIG. 15B: Serial MPM imaging of the same glomerulus (G) in the same Cdh5-Confetti mice was performed daily for one week. Endothelial cell distribution was registered using Z-sectioning of the glomerulus from top to bottom at each time point. Compared to baseline (FIG. 15A) when cells of all Confetti colors (membrane-bound CFP (blue), nuclear GFP (green), cytosolic YFP (yellow) and RFP (red)) were evenly distributed within the glomerulus, monochromatic glomeruli developed as early as 4 days (FIG. 15B) after endothelial injury (L-NAME treatment) indicating the presence of single precursor cell-derived colonies. Note the presence of cells in multiple colors in the afferent arteriole (AA, arrow) at baseline (FIG. 15A) including one GFP+ (green) and one RFP+ (magenta) cell at the terminal segment, and the identically colored intra-glomerular cell colonies (mostly green, some magenta) 4 days later (FIG. 15B). FIG. 15C: Schematic of the three directly adjacent JGA cell types (MD, JG renin, and AA EPCs) forming a functional syntitium via cell-to-cell crosstalk to remodel the glomerulus.

[8] = low salt diet+captopril treatment for one week

## O=[N+]([O-])c1cccc2cn[nH]c12 [7-NI]
[1]; [8]
  proliferation of NG2+ cells: completely abolished
[1]; low salt diet+captopril-treated, n=4 each group, P<0.05 versus untreated low salt+captopril
  number of Ki67+ cells in the JGA area: significantly reduced

## NS(=O)(=O)c1ccc(-n2nc(C(F)(F)F)cc2-c2ccc(Cl)cc2)cc1 [SC58236]
[2]; [8]
  inhibition of the increased density of NG2+ cells: 70%
[2]; low salt diet+captopril-treated, n=4 each group, P<0.05
  number of NG2+ cells in the JGA area: significantly reduced

## NS(=O)(=O)c1cc(C(=O)O)c(NCc2ccco2)cc1Cl [furosemide]
[3]
  kidney tissue (vascular and glomerular) remodeling: significant kidney tissue remodeling; also recorded: Robust vascular and glomerular remodeling

## NH2-ACFNDSDMLCGGGKKHLLAHALHLLALLALHLAHALAHLKKA-NH2 (H-ACFNDSDMLCGGGKKHLLAHALHLLALLALHLAHALAHLKKA-NH2; cysteine pairing not given here) [MMDD1 homing peptide+GFP cDNA complex]
MMDD1 cells
  transfection with GFP: successful transfection

B1: CCN1: recombinant CCN family member 1, secreted matricellular protein, angiogenic inducer (protein, UniProt O00622 25-381, looked up)
CCN family member 1: TCPAACHCPLEAPKCAPGVGLVRDGCGCCKVCAKQLNEDCSKTQPCDHTKGLECNFGASSTALKGICRAQSEGRPCEYNSRIYQNGESFQPNCKHQCTCIDGAVGCIPLCPQELSLPNLGCPNPRLVKVTGQCCEEWVCDEDSIKDPMEDQDGLLGKELGFDASEVELTRNNELIAVGKGSSLKRLPVFGMEPRILYNPLQGQKCIVQTTSWSQCSKTCGTGISTRVTNDNPECRLVKETRICEVRPCGQPVYSSLKKGKKCSKTKKSPEPVRFTYAGCLSVKKYRPKYCGSCVDGRCCTPQLTRTVKMRFRCEDGETFSKNVMMIQSCKCNYNCPHANEAAFPFYRLFNDIHKFRD
Cultured GEnCs [4]; added to the media of cultured GEnCs
  effect on cell proliferation and migration: robust dose-dependent effect
Cultured GEnCs [4]; not shown
  effects on GEnCs in presence of blocking antibodies for integrins αvβ3 and VEGF receptor blockers: almost completely abolished
Cultured GEnCs [5]
  in vitro angiogenesis (tube formation assay) compared with VEGF: more effective
Renin cell
  effect on renin cell proliferation and migration: no effect
[6]; treatment for 5 consecutive days started two weeks after 8 mg/kg ADR iv, 1 and 4 weeks after treatment
  albuminuria (albumin/creatinine ratio, ACR): robust decline
[6]; versus control saline-treated
  glomerulosclerosis and tissue fibrosis (trichrome kidney histology): improved pathology
Sclerotic glomeruli; preliminary mouse and rat studies of GS
  proteinuria: diminished proteinuria
Sclerotic glomeruli; single renal subcapsular treatment, two weeks' follow-up
  increase in Ki67+ proliferating cells in glomeruli: > 20 fold
Sclerotic glomeruli; single treatment, treated versus control groups
  number of p57+ podocytes: significantly increased
[7]; subcapsular treatment for one week
  Confetti cell tracing units in glomeruli: high number of Confetti cells formed monochromatic tracing units
[7]; within a few days
  remodeling of the glomerular endothelial layer: rapid and robust remodeling
